Data published in patent US10377811B2, “Peptides, combination of peptides as targets and for use in immunotherapy against gallbladder cancer and cholangiocarcinoma and other cancers” (Immatics biotechnologies GmbH, priority 2016, dated 2019).

Test system: CD8+ T cells of healthy HLA-A*02 donors
Assay: In vitro T-cell priming immunogenicity assay with aAPCs loaded with peptide/MHC complexes and anti-CD28 antibody, multimer readout
Assay type: cell-based, human
Conditions: HLA class I peptides, Table 10A
Excerpt: In order to obtain information regarding the immunogenicity of the TUMAPs of the present invention, the inventors performed investigations using an in vitro T-cell priming assay based on repeated stimulations of CD8+ T cells with artificial antigen presenting cells (aAPCs) loaded with peptide/MHC complexes and anti-CD28 antibody.
In order to perform in vitro stimulations by artificial antigen presenting cells loaded with peptide-MHC complex (pMHC) and anti-CD28 antibody, the inventors first isolated CD8+ T cells from fresh HLA-A*02 leukapheresis products via positive selection using CD8 microbeads (Miltenyi Biotec, Bergisch-Gladbach, Germany) of healthy donors obtained from the University clinics Mannheim, Germany, after informed consent.
PBMCs and isolated CD8+ lymphocytes were incubated in T-cell medium (TCM) until use consisting of RPMI-Glutamax (Invitrogen, Karlsruhe, Germany) supplemented with 10% heat inactivated human AB serum (PAN-Biotech, Aidenbach, Germany), 100 U/ml Penicillin/100 μg/ml Streptomycin (Cambrex, Cologne, Germany), 1 mM sodium pyruvate (CC Pro, Oberdorla, Germany), 20 μg/ml Gentamycin (Cambrex). 2.5 ng/ml IL-7 (PromoCell, Heidelberg, Germany) and 10 U/ml IL-2 (Novartis Pharma, Nürnberg, Germany) were also added to the TCM at this step.
Generation of pMHC/anti-CD28 coated beads, T-cell stimulations and readout was performed in a highly defined in vitro system using four different pMHC molecules per stimulation condition and 8 different pMHC molecules per readout condition.
The purified co-stimulatory mouse IgG2a anti human CD28 Ab 9.3 (Jung et al., 1987) was chemically biotinylated using Sulfo-N-hydroxysuccinimidobiotin as recommended by the manufacturer (Perbio, Bonn, Germany). Beads used were 5.6 μm diameter streptavidin coated polystyrene particles (Bangs Laboratories, Ill., USA).
800.000 beads/200 μl were coated in 96-well plates in the presence of 4×12.5 ng different biotin-pMHC, washed and 600 ng biotin anti-CD28 were added subsequently in a volume of 200 μl. Stimulations were initiated in 96-well plates by co-incubating […] CD8+ T cells with 2×10^5 washed coated beads in 200 μl TCM supplemented with 5 ng/ml IL-12 (PromoCell) for 3 days at 37° C. Half of the medium was then exchanged by fresh TCM supplemented with 80 U/ml IL-2 and incubating was continued for 4 days at 37° C. This stimulation cycle was performed for a total of three times. For the pMHC multimer readout using 8 different pMHC molecules per condition, a two-dimensional combinatorial coding approach was used as previously described (Andersen et al., 2012) with minor modifications encompassing coupling to 5 different fluorochromes. Finally, multimeric analyses were performed by staining the cells with Live/dead near IR dye (Invitrogen, Karlsruhe, Germany), CD8-FITC antibody clone SK1 (BD, Heidelberg, Germany) and fluorescent pMHC multimers. For analysis, a BD LSRII SORP cytometer equipped with appropriate lasers and filters was used. Peptide specific cells were calculated as percentage of total CD8+ cells. Evaluation of multimeric analysis was done using the FlowJo software (Tree Star, Oreg., USA). In vitro priming of specific multimer+ CD8+ lymphocytes was detected by comparing to negative control stimulations.

Substance	wells (in vitro immunogenicity)
33 (ILGTEDLIVEV; listed as Homo sapiens) [compound 33]	++ (20%-49% = ++)
34 (LLWGNLPEI; listed as Homo sapiens) [compound 34]	++ (20%-49% = ++)
35 (GLIDEVMVL; listed as Homo sapiens) [compound 35]	++ (20%-49% = ++)
36 (ILVDWLVQV; listed as Homo sapiens) [compound 36]	++ (20%-49% = ++)
38 (KIQEILTQV; listed as Homo sapiens) [compound 38]	++ (20%-49% = ++)

Same assay, conditions: HLA-A*02 restricted peptides, percentage of positive wells among evaluable, Table 10B

Substance	Wells positive [%]
6 (LLLPLLPPLSPS; listed as Homo sapiens) [compound 6]	+ (<20% = +)
13 (VLPRAFTYV; listed as Homo sapiens) [compound 13]	++++ (> = 70% = ++++)
16 (AVMTDLPVI; listed as Homo sapiens) [compound 16]	+ (<20% = +)
25 (NLSETASTMAL; listed as Homo sapiens) [compound 25]	++ (20%-49% = ++)

Molecular target: HLA-A*02:01 (Homo sapiens, UniProt P04439, D140Y/D185E/D98H/E176V/E277Q/G131W/G231S/I119V/I121R/I166T/I218V/L300P/L318F/N151K/N90K/P208A/P217A/Q86G/Q94H/R138H/R169H/T345S)
Assay: MHC binding assay (UV-ligand exchange, β2m ELISA)
Conditions: peptide exchange yield
Excerpt: Candidate peptides for T cell based therapies according to the present invention were further tested for their MHC binding capacity (affinity). The individual peptide-MHC complexes were produced by UV-ligand exchange, where a UV-sensitive peptide is cleaved upon UV-irradiation, and exchanged with the peptide of interest as analyzed. Only peptide candidates that can effectively bind and stabilize the peptide-receptive MHC molecules prevent dissociation of the MHC complexes. To determine the yield of the exchange reaction, an ELISA was performed based on the detection of the light chain (β2m) of stabilized MHC complexes. The assay was performed as generally described in Rodenko et al. (Rodenko et al., 2006).
96 well MAXISorp plates (NUNC) were coated over night with 2 ug/ml streptavidin in PBS at room temperature, washed 4× and blocked for 1 h at 37° C. in 2% BSA containing blocking buffer. Refolded HLA-A*02:01/MLA-001 monomers served as standards, covering the range of 15-500 ng/ml. Peptide-MHC monomers of the UV-exchange reaction were diluted 100-fold in blocking buffer. Samples were incubated for 1 h at 37° C., washed four times, incubated with 2 ug/ml HRP conjugated anti-β2 m for 1 h at 37° C., washed again and detected with TMB solution that is stopped with […]. Absorption was measured at 450 nm. Candidate peptides that show a high exchange yield (preferably higher than 50%, most preferred higher than 75%) are generally preferred for a generation and production of antibodies or fragments thereof, and/or T cell receptors or fragments thereof, as they show sufficient avidity to the MHC molecules and prevent dissociation of the MHC complexes.

Peptide exchange (MHC class I binding score)	Substance
+++ (>50 = +++)	1 (YAAEIASAL; listed as Homo sapiens) [compound 1]
+++ (>50 = +++)	2 (AAYPEIVAV; listed as Homo sapiens) [compound 2]
+++ (>50 = +++)	3 (EMDSTVITV; listed as Homo sapiens) [compound 3]
++++ (>75% = ++++)	4 (FLLEAQNYL; listed as Homo sapiens) [compound 4]
++++ (>75% = ++++)	5 (GLIDEVMVLL; listed as Homo sapiens) [compound 5]
++++ (>75% = ++++)	6 (LLLPLLPPLSPS; listed as Homo sapiens) [compound 6]
++++ (>75% = ++++)	7 (LLLSDPDKVTI; listed as Homo sapiens) [compound 7]
+ (>10% = +)	8 (LSASLVRIL; listed as Homo sapiens) [compound 8]
++++ (>75% = ++++)	9 (RLAKLTAAV; listed as Homo sapiens) [compound 9]
++ (>20% = ++)	10 (SAFPFPVTVSL; listed as Homo sapiens) [compound 10]
++++ (>75% = ++++)	11 (SIIDFTVTM; listed as Homo sapiens) [compound 11]
+ (>10% = +)	12 (TILPGNLQSW; listed as Homo sapiens) [compound 12]
++++ (>75% = ++++)	13 (VLPRAFTYV; listed as Homo sapiens) [compound 13]
++++ (>75% = ++++)	14 (YGIEFVVGV; listed as Homo sapiens) [compound 14]
++++ (>75% = ++++)	15 (SVIDSLPEI; listed as Homo sapiens) [compound 15]
++++ (>75% = ++++)	16 (AVMTDLPVI; listed as Homo sapiens) [compound 16]

Peptide exchange (MHC class I binding score)	Substance
++++ (>75% = ++++)	17 (VLYDNTQLQL; listed as Homo sapiens) [compound 17]
+++ (>50 = +++)	18 (SLSPDLSQV; listed as Homo sapiens) [compound 18]
++ (>20% = ++)	19 (TAYPQVVVV; listed as Homo sapiens) [compound 19]
++++ (>75% = ++++)	20 (VLQDELPQL; listed as Homo sapiens) [compound 20]
+++ (>50 = +++)	21 (IAFPTSISV; listed as Homo sapiens) [compound 21]
++ (>20% = ++)	22 (SAFGFPVIL; listed as Homo sapiens) [compound 22]
++++ (>75% = ++++)	23 (SLLSELLGV; listed as Homo sapiens) [compound 23]
+ (>10% = +)	24 (ISAPLVKTL; listed as Homo sapiens) [compound 24]
++++ (>75% = ++++)	25 (NLSETASTMAL; listed as Homo sapiens) [compound 25]
+ (>10% = +)	26 (TAQTLVRIL; listed as Homo sapiens) [compound 26]
+++ (>50 = +++)	27 (ALAEQVQKA; listed as Homo sapiens) [compound 27]
+ (>10% = +)	28 (YASGSSASL; listed as Homo sapiens) [compound 28]
++++ (>75% = ++++)	29 (FASEVSNVL; listed as Homo sapiens) [compound 29]
+++ (>50 = +++)	30 (FASGLIHRV; listed as Homo sapiens) [compound 30]
++++ (>75% = ++++)	31 (IAIPFLIKL; listed as Homo sapiens) [compound 31]
++++ (>75% = ++++)	32 (YVISQVFEI; listed as Homo sapiens) [compound 32]
